Assay results as given in patent publication US20210230266A1 (SINGAPORE HEALTH SERVICES PTE, published 2021).
Residue numbers refer to the chain shown, from its start. Values belong to the binder of their own block, whether it stands above or below them.

Experiments:
[1] = target: T1, FLAG-tagged human IL-11 expressed at the surface of transiently transfected cells (human, UniProt P20809 22-199); assay: flow cytometry, hybridoma supernatant on cells transfected with pB1-IL11-hum.FL
T1 construct: also called IL-11 expressing HEK cells; target cells expressing human IL-11 at their surface; not shown: FLAG tag added to the N-terminus
T1 sequence: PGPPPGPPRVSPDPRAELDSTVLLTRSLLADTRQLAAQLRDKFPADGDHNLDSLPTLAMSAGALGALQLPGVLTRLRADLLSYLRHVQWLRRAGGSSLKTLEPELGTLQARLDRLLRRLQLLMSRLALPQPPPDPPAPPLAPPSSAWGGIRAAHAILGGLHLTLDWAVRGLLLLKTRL

[2] = target: T1, FLAG-tagged human IL-11 expressed at …; assay: flow cytometry, hybridoma supernatant on cells transfected with pB1-IL11-hum.FL; relative to the anti-FLAG positive control (100%)
Human IL-11 [3] = target: T2, Human IL-11 (human, UniProt P20809 22-199); assay: told from inhibition of MMP2 secretion by TGFB1-stimulated primary human atrial fibroblasts (FIG. 54A)
T2 construct: Recombinant human IL-11 (GenScript Cat. No. Z03108-1) or IL-11 secreted by human cells; the mature form is said to have 178 residues; also called recombinant human IL-11; endogenously produced IL-11
T2 sequence: T1 sequence
Protocol: Primary human atrial fibroblasts were incubated with TGFB1 (5 ng/ml) and varying concentrations of humanised 3C6 clones. MMP2 secretion into the supernatant by human atrial fibroblasts was assessed to estimate the % of inhibition.

Human IL-11 [4] = target: T2, Human IL-11; assay: ELISA
Protocol: (§1) The soluble scFv were produced by recombinant expression in E. coli, and analysed for their ability to bind to human IL-11 and murine IL-11 by ELISA. Briefly, the respective antigen was coated to wells of an ELISA plate, the cell culture supernatant containing the respective scFv was added at a 1:2 dilution, and binding was detected.

Mouse IL-11 [5] = target: T3, Mouse IL-11 (mouse, UniProt P47873 22-199, limits assumed); assay: ELISA
T3 construct: also called murine IL-11; recombinant murine IL-11
T3 sequence (looked up): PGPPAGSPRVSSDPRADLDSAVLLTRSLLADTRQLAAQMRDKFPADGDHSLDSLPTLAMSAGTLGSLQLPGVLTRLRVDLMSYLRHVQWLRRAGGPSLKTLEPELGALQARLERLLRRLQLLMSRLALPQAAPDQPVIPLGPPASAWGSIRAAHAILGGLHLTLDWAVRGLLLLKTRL
Protocol: as §1

Human IL-11 [6] = target: T2, Human IL-11; assay: SPR, Single Cycle Kinetics, BIAcore T200; human IL-11 immobilised on CM5 chip, antibody in IgG1 format as analyte, 1:1 model
Human IL-11 [7] = target: T2, Human IL-11; assay: cell-based or functional assay
Human IL-11 [8] = target: T2, Human IL-11; assay: ELISA on coated recombinant human IL-11 (100 ng/well), scFv-Fc
Protocol: The light chain shuffled anti-IL-11 antibodies were analysed to determine the EC50 for binding to human IL-11 by ELISA according to standard methods. Briefly, wells of microtiter plates were coated with recombinant human IL-11 (100 ng/well), scFv-Fc comprising the VH and VL domains of the clones were added in a dilution series and antibody binding was detected using a polyclonal antibody detection system.

Mouse IL-11 [9] = target: T3, Mouse IL-11; assay: real-time binding kinetics; the text says SPR (BIAcore T200), the sheet's axis reads Binding [nm]
Protocol: (§2) Real-time binding kinetics of anti-IL-11 antibody BSN-3C6 to human and mouse IL-11 were measured by surface plasmon resonance (SPR) using a BIAcore T200 system (GE Healthcare, USA). The association and dissociation were measured for 250 s and 500 s respectively. The equilibrium binding constant KD was determined by the ratio of the binding rate constants kd/ka.

Human IL-11 [10] = target: T2, Human IL-11; assay: SPR, BIAcore T200; KD from kd/ka
Protocol: as §2

Mouse IL-11 [11] = target: T3, Mouse IL-11; assay: SPR, BIAcore T200; KD from kd/ka
Protocol: as §2

Human IL-11 [12] = target: T2, Human IL-11; assay: SPR, BIAcore T200; sensorgrams with association to 250 s and dissociation to 750 s
Protocol: as §2

B1: BSN-1H2 (antibody, IgG1, V domains shown)
VH: QAQLQQSGAELARPGASVKLSCKASGYTFTSYGITWVKQRTGQGLEWIGDIYPRSGNIYYNENFKGEATLTADKSSSTAYMQLSRLTSEDSAVYFCARSGWEGWFAYWGQGTLVTVSV
VL: DIVMTQSHKFMSTSVGDRVNITCKASQDVGSAVVWYQQKPGQSPKVLIYWASTRHTGVPDRFTGSGSGTDFTLTISNVQSEDLADYFCQQYSSYRTFGGGTKLEIK
notes: also called A1
GMFI [1]: 197000 | binding relative to anti-FLAG positive control [2]: 157%

B2: BSN-5B8 (antibody, V domains shown)
VH: QVQLQQSGAELARPGTSVKLSCKASGYTFTSYGISWVKQRTGQGLEWIGEIYPRSSNTYYNEKFKGKATLTADKSSSTAYMELRSLTSEDSADYFCARANWVGYFDVWGTGTTVTVSS
VL: B1 VL with N20T, S31T, V34A, V46L, H55L, D70Y, S76N
GMFI [1]: 236000 | binding relative to anti-FLAG positive control [2]: 188%

B3: BSN-2G6 (antibody, V domains shown)
VH: QVQLQESGPELVKPGASVKIPCKASGYTFTDYNMDWVKQSHGKSLEWIGNINPDNGGTIYNQKFKGKATLTVDKSSSTAYMELRSLTSEDTAVYFCAREGPYGYTWFAYWGQGTLDTVSA
VL: DILLTQSPAILSVSPGERVSFSCRASQSIGTSIHWYQQRTNGSPRLLIKYASESISGIPSRFSGSGSGTDFTLSINSVESEDIADYYCQQSNSWPLTFGAGTKLELK
GMFI [1]: 28600 | binding relative to anti-FLAG positive control [2]: 23%

B4: Humanised 3C6 clone VH 2.2/VL 2.2 (antibody, V domains shown)
VH: EVQLVQSGAEVKKPGASVKISCKASGYTFTDYNMDWVKQAPGQRLEWIGDINPHNGGPIYNQKFTGRATLTVDKSASTAYMELSSLRSEDTAVYYCARGELGHWYFDVWGQGTTVTVSS
VL: DIVLTQSPASLALSPGERATLSCRASKSVSTSGYSYIHWYQQKPGQAPRLLIYLASNLDSGVPARFSGSGSGTDFTLTISSLEEEDFATYYCQHSRDLPPTFGQGTKLEIK
notes: also called 3C6 VH2.2/VL2.2
binding result (Human IL-11 [3]): binds

B11: BSN-3C6 (antibody, V domains shown)
VH: EVQLQQSGPELVKPGASVKIPCKASGYTFTDYNMDWVKQSHGKSLEWIGDINPHNGGPIYNQKFTGKATLTVDKSSSTAYMELRSLTSEDTAVYYCARGELGHWYFDVWGTGTTVTVSS
VL: DIVLTQSPASLAVSLGQRATISCRASKSVSTSGYSYIHWYQQKPGQPPKLLIYLASNLDSGVPARFSGSGSGTDFTLNIHPVEEEDAATYYCQHSRDLPPTFGGGTKLEIK
notes: Mouse monoclonal antibody from a hybridoma; also called A6; anti-IL-11 antibody clone BSN-3C6
koff (Mouse IL-11 [9]): 0.000112 s⁻¹ | kon (Mouse IL-11 [9]): 46900 M⁻¹ s⁻¹ | Kd (Human IL-11 [10]): 4.14 nM | Kd (Mouse IL-11 [11]): 2.38 nM | GMFI [1]: 222000 | binding relative to anti-FLAG positive control [2]: 176% | koff (Human IL-11 [12]): 0.000635 s⁻¹ | kon (Human IL-11 [12]): 153000 M⁻¹ s⁻¹

B12: BSN-2E1 (antibody, V domains shown)
VH: B11 VH with E1Q, Q6E
VL: NIVMTQSPKSMSMSVGERVTLTCKASENVVTYVSWYQQKPEQSPKLLIYGASNRYTGVPDRFTGSGSATDFTLTISSVQAEDLADYHCGQGYSYPYTFGGGTKLEIK
GMFI [1]: 206000 | binding relative to anti-FLAG positive control [2]: 164%

B13: BSN-7D4 (antibody, V domains shown)
VH: B11 VH with P21S, H41Q, S44R, H54N, N55Y, P58T, T65K, A92T, A97T
VL: B11 VL with A9P, A12T, T31A, I37M, A55T, D59E, R96W
notes: Mouse monoclonal antibody from a hybridoma; also called A12
GMFI [1]: 221000 | binding relative to anti-FLAG positive control [2]: 176%

Second part, the binder after the results:

binding result (Human IL-11 [3]): binds
B5: Humanised 3C6 clone VH 2.2/VL 2.4 (antibody, V domains shown)
VH: B4 VH
VL: B4 VL with D1E, S10T, A12S, E84P

binding result (Human IL-11 [3]): binds
B6: Humanised 3C6 clone VH 2.3/VL 2.2 (antibody, V domains shown)
VH: B4 VH with K38R, A68V
VL: B4 VL

binding result (Human IL-11 [3]): binds
B7: Humanised 3C6 clone VH 2.2/VL 2.3 (antibody, V domains shown)
VH: B4 VH
VL: B4 VL with S10T, A12S, E84P

binding result (Human IL-11 [3]): binds
B8: Humanised 3C6 clone VH 2.2/VL 2.1 (antibody, V domains shown)
VH: B4 VH
VL: B4 VL with A47P, T78N, S80H, S81P
notes: T0003 heads the columns Heavy chain and Light chain, but the entries are variable domains; also called 3C6 VH2.2/VL2.1

binding result (Human IL-11 [3]): binds
B9: Humanised 3C6 clone VH 2.3/VL 2.3 (antibody, V domains shown)
VH: B4 VH with K38R, A68V
VL: B4 VL with S10T, A12S, E84P

hIL11 - average signal (Human IL-11 [4]): 0.43 | mIL11 - average signal (Mouse IL-11 [5]): 0.283 | Kd (Human IL-11 [6]): 42.3 nM | koff (Human IL-11 [6]): 0.000658 s⁻¹ | kon (Human IL-11 [6]): 14800 M⁻¹ s⁻¹ | MMP2 production, Experiment 1 (human atrial fibroblasts + TGFB1) (Human IL-11 [7]): 48.3 ng/mL | MMP2 production, Experiment 2 (human atrial fibroblasts + TGFB1) (Human IL-11 [7]): 42.2 ng/mL | EC50 (Human IL-11 [8]): 0.053 µg/mL
B10: YU100-H01 (antibody, human IgG1, V domains shown)
VH: QVQLVQSGGGVVQPGRSLRLSCAASGFTFSSYAMHWVRQAPGKGLEWVAVISYDGSNKYYADSVKGRFTISRDNSKNTLYLQMNSLRAEDTAVYYCARIMGYDYGDYDVVDYWGQGTLVTVSS
VL: QSALTQPRSVSGSPGQSVTISCTGTSSDVGAYNYVSWYQQHPGKAPKLMIYDVSERPSGVPDRFSGSKSGNTASLTISGLQAEDEADYYCCSYAGSYTWVFGGGTKLTVLG
notes: Light chain shuffled human antibody; Only the variable domains are tied to the clone

GMFI [1]: 239000 | binding relative to anti-FLAG positive control [2]: 190%
B14: BSN-8H11 (antibody, IgG2b, V domains shown)
VH: B11 VH with M34I, H54N, N55Y, P58T, I59L, T65K
VL: B11 VL with G33D, I37M, Q46H, D59E, Y91F
notes: also called A16
